Test results from paper PMC9352680, “A comprehensive thermodynamic model for RNA binding by the Saccharomyces cerevisiae Pumilio protein PUF4”.

Target: T1, PUF4 RNA-binding domain (Saccharomyces cerevisiae, UniProt P25339 537-888)
T1 sequence: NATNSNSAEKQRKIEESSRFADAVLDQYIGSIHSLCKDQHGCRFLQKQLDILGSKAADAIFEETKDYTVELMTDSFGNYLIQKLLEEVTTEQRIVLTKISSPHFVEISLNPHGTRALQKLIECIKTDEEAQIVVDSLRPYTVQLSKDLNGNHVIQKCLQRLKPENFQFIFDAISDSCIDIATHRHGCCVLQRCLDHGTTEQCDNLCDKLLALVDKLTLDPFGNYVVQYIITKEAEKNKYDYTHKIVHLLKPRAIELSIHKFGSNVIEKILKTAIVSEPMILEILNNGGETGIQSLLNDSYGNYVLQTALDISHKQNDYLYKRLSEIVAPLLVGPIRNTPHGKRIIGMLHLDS
Test: Mg; RNA-MaP; 20 mM Na-HEPES pH 7.4, 30 mM KOAc, 0.75 mM MgCl2, 0.1% Tween-20, 5% glycerol, 0.1 mg/mL BSA, 2 mM DTT; 25 C; 0.0125-409.6 nM protein
Settings: tags: N-His6-TEV cleaved; C-SNAP kept, Cy3B-labelled; label: tethered on chip by stalled RNA polymerase

Binder	Kd [nM]
UCUCUUGUUGUAUAUAAUUCUCUU (ssRNA) [Id_ii_S1_P3E.2_K3.1_C3.2_[C-2G]_H3.1_A3.1_F3.1_T3.2_[T9A]_[A10T]]	9.55
UCUCUUGUUGUAUAUAAAUCUCUU (ssRNA) [Id_ii_S1_P3E.2_K3.1_C3.2_[C-2G]_H3.1_A3.1_F3.1_T3.2_[T9A]]	8.84
UCUCUUGUUGUAUAUAUGUCUCUU (ssRNA) [Id_ii_S1_P3E.2_K3.1_C3.2_[C-2G]_H3.1_A3.1_F3.1_T3.2_[A10G]]	8.99
UCUCUUGUUGUAUAUAUCUCUCUU (ssRNA) [Id_ii_S1_P3E.2_K3.1_C3.2_[C-2G]_H3.1_A3.1_F3.1_T3.2_[A10C]]	8.36
UCUCUUGUUGUAUAUAUUUCUCUU (ssRNA) [Id_ii_S1_P3E.2_K3.1_C3.2_[C-2G]_H3.1_A3.1_F3.1_T3.2_[A10T]]	8
UCUCUUGUUGUAUAUAUAUCUCUU (ssRNA) [Id_ii_S1_P3E.2_K3.1_C3.2_[C-2G]_H3.1_A3.1_F3.1_T3.2]	5.16
UCUCUUAGUUUAUUAUCUCUU (ssRNA) [Ib_S1_P4E.1_K4.1_C4.1_H4.1_[T1A]_[A4T]_A4.1_F4.1_T4.1]	> 2300
UCUCUUUGUGUAUAUAGUUCUCUU (ssRNA) [Id_ii_S1_P3E.2_K3.1_C3.2_[C-2T]_[T-1G]_H3.1_A3.1_F3.1_T3.2_[T9G]_[A10T]]	6.29
UCUCUUUGUGUAUAUACCUCUCUU (ssRNA) [Id_ii_S1_P3E.2_K3.1_C3.2_[C-2T]_[T-1G]_H3.1_A3.1_F3.1_T3.2_[T9C]_[A10C]]	23.4
UCUCUUUGUGUAUAUAAUUCUCUU (ssRNA) [Id_ii_S1_P3E.2_K3.1_C3.2_[C-2T]_[T-1G]_H3.1_A3.1_F3.1_T3.2_[T9A]_[A10T]]	9.46
UCUCUUUGUGUAUAUAUGUCUCUU (ssRNA) [Id_ii_S1_P3E.2_K3.1_C3.2_[C-2T]_[T-1G]_H3.1_A3.1_F3.1_T3.2_[A10G]]	8.9
UCUCUUUGUGUAUAUAUCUCUCUU (ssRNA) [Id_ii_S1_P3E.2_K3.1_C3.2_[C-2T]_[T-1G]_H3.1_A3.1_F3.1_T3.2_[A10C]]	7.14
UCUCUUUGUGUAUAUAUUUCUCUU (ssRNA) [Id_ii_S1_P3E.2_K3.1_C3.2_[C-2T]_[T-1G]_H3.1_A3.1_F3.1_T3.2_[A10T]]	8.9
UCUCUUUCUGUAUAUAGCUCUCUU (ssRNA) [Id_ii_S1_P3E.2_K3.1_C3.2_[C-2T]_[T-1C]_H3.1_A3.1_F3.1_T3.2_[T9G]_[A10C]]	3.8
UCUCUUUCUGUAUAUAGUUCUCUU (ssRNA) [Id_ii_S1_P3E.2_K3.1_C3.2_[C-2T]_[T-1C]_H3.1_A3.1_F3.1_T3.2_[T9G]_[A10T]]	3.7
UCUCUUUCUGUAUAUACGUCUCUU (ssRNA) [Id_ii_S1_P3E.2_K3.1_C3.2_[C-2T]_[T-1C]_H3.1_A3.1_F3.1_T3.2_[T9C]_[A10G]]	17.9
UCUCUUUCUGUAUAUACUUCUCUU (ssRNA) [Id_ii_S1_P3E.2_K3.1_C3.2_[C-2T]_[T-1C]_H3.1_A3.1_F3.1_T3.2_[T9C]_[A10T]]	9.31
UCUCUUUUCAUAUUAUCUCUU (ssRNA) [Ib_S1_P4E.1_K4.1_C4.1_H4.1_[G2T]_[T3C]_A4.1_F4.1_T4.1]	> 2300
UCUCUUUCUGUAUAUACAUCUCUU (ssRNA) [Id_ii_S1_P3E.2_K3.1_C3.2_[C-2T]_[T-1C]_H3.1_A3.1_F3.1_T3.2_[T9C]]	23
UCUCUUUCUGUAUAUAAGUCUCUU (ssRNA) [Id_ii_S1_P3E.2_K3.1_C3.2_[C-2T]_[T-1C]_H3.1_A3.1_F3.1_T3.2_[T9A]_[A10G]]	6.84
UCUCUUUCUGUAUAUAACUCUCUU (ssRNA) [Id_ii_S1_P3E.2_K3.1_C3.2_[C-2T]_[T-1C]_H3.1_A3.1_F3.1_T3.2_[T9A]_[A10C]]	5.55
UCUCUUUCUGUAUAUAAUUCUCUU (ssRNA) [Id_ii_S1_P3E.2_K3.1_C3.2_[C-2T]_[T-1C]_H3.1_A3.1_F3.1_T3.2_[T9A]_[A10T]]	4.37
UCUCUUUCUGUAUAUAAAUCUCUU (ssRNA) [Id_ii_S1_P3E.2_K3.1_C3.2_[C-2T]_[T-1C]_H3.1_A3.1_F3.1_T3.2_[T9A]]	8.49
UCUCUUUCUGUAUAUAUCUCUCUU (ssRNA) [Id_ii_S1_P3E.2_K3.1_C3.2_[C-2T]_[T-1C]_H3.1_A3.1_F3.1_T3.2_[A10C]]	5.38
UCUCUUUCUGUAUAUAUUUCUCUU (ssRNA) [Id_ii_S1_P3E.2_K3.1_C3.2_[C-2T]_[T-1C]_H3.1_A3.1_F3.1_T3.2_[A10T]]	5.64
UCUCUUUAUGUAUAUAGCUCUCUU (ssRNA) [Id_ii_S1_P3E.2_K3.1_C3.2_[C-2T]_[T-1A]_H3.1_A3.1_F3.1_T3.2_[T9G]_[A10C]]	6.81
UCUCUUUAUGUAUAUAGUUCUCUU (ssRNA) [Id_ii_S1_P3E.2_K3.1_C3.2_[C-2T]_[T-1A]_H3.1_A3.1_F3.1_T3.2_[T9G]_[A10T]]	6.42
UCUCUUUAUGUAUAUACCUCUCUU (ssRNA) [Id_ii_S1_P3E.2_K3.1_C3.2_[C-2T]_[T-1A]_H3.1_A3.1_F3.1_T3.2_[T9C]_[A10C]]	15.5
UCUCUUUAAAUAUUAUCUCUU (ssRNA) [Ib_S1_P4E.1_K4.1_C4.1_H4.1_[G2A]_[T3A]_A4.1_F4.1_T4.1]	> 2300
UCUCUUUAUGUAUAUACUUCUCUU (ssRNA) [Id_ii_S1_P3E.2_K3.1_C3.2_[C-2T]_[T-1A]_H3.1_A3.1_F3.1_T3.2_[T9C]_[A10T]]	15.1
